Assay results: patent US20090048324A1 (FOX CHASE CANCER CENTER, published 2009)

Experiments:
[1] = target: the molecule itself; assay: cell-based or functional assay
[2] = target: the molecule itself; assay: purification and dialysis against magnesium
[3] = target: T1, human PBGS variant F12L (human, UniProt P13716 1-330); assay: coexpression, Q-Sepharose chromatography
T1 construct: Hexamer in the crystal structure (PDB 1PV8); tetramer/hexamer mix in sedimentation equilibrium; also called F12L hexamer
T1 chain: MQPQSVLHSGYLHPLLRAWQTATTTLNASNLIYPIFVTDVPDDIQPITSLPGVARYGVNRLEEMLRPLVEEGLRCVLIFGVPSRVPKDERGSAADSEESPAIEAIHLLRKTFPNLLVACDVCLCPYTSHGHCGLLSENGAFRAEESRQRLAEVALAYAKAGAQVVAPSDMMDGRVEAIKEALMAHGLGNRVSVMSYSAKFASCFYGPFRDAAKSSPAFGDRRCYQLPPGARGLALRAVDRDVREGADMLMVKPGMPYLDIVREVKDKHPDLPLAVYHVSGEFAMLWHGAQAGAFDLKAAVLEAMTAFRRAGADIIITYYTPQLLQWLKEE

B1: pea (Pisum sativum) porphobilinogen synthase (enzyme, Pisum sativum (pea), UniProt P30124 69-398, looked up)
chain: SLPIQRRPRRNRRSPALRSAFQETTLSPANFVYPLFIHEGEEDTPIGAMPGCYRLGWRHGLLEEVAKARDVGVNSVVLFPKIPDALKTPTGDEAYNEDGLVPRSIRLLKDKYPDLIIYTDVALDPYSSDGHDGIVREDGVIMNDETVHQLCKQAVAQARAGADVVSPSDMMDGRVGAMRVALDAEGFQHVSIMSYTAKYASSFYGPFREALDSNPRFGDKKTYQMNPANYREALTEMREDESEGADILLVKPGLPYLDIIRLLRDNSPLPIAAYQVSGEYSMIKAGGALKMIDEEKVMMESLLCLRRAGADIILTYFALQAARTLCGEKR
In the case of B1, the “EC50 (read off the curve), specific activity against pea PBGS subunit concentration” value [1] is reported as roughly 30 nM.

B2: Pseudomonas aeruginosa porphobilinogen synthase (enzyme)
chain: MSFTPANRAYPYTRLRRNRRDDFSRRLVRENVLTVDDLILPVFVLDGVNQRESIPSMPGVERLSIDQLLIEAEEWVALGIPALALFPVTPVEKKSLDAAEAYNPEGIAQRATRALRERFPELGIITDVALDPFTTHGQDGILDDDGYVLNDVSIDVLVRQALSHAEAGAQVVAPSDMMDGRIGAIREALESAGHTNVRIMAYSAKYASAYYGPFRDAVGSASNLGKGNKATYQMDPANSDEALHEVAADLAEGADMVMVKPGMPYLDIVRRVKDEFRAPTFVYQVSGEYAMHMGAIQNGWLAESVILESLTAFKRAGADGILTYFAKQAAEQLRRGR
notes: Purified as a dimer without magnesium and converted to the octamer by dialysis against magnesium; also called P. aeruginosa PBGS
B2: binds [2].

B3: wild type human porphobilinogen synthase (PBGS), parent construct N59/C162A (enzyme)
chain: MQPQSVLHSGYFHPLLRAWQTATTTLNASNLIYPIFVTDVPDDIQPITSLPGVARYGVNRLEEMLRPLVEEGLRCVLIFGVPSRVPKDERGSAADSEESPAIEAIHLLRKTFPNLLVACDVCLCPYTSHGHCGLLSENGAFRAEESRQRLAEVALAYAKAGAQVVAPSDMMDGRVEAIKEALMAHGLGNRVSVMSYSAKFASCFYGPFRDAAKSSPAFGDRRCYQLPPGARGLALRAVDRDVREGADMLMVKPGMPYLDIVREVKDKHPDLPLAVYHVSGEFAMLWHGAQAGAFDLKAAVLEAMTAFRRAGADIIITYYTPQLLQWLKEE
notes: Homo-oligomer, predominantly an octamer; also called Wt; WT
B3: binds [3].
